From patent US20230002480A1

Tests used:
Assay in all cases: cell-based or functional assay
[1] = molecular target: HIV-1 Env of pseudovirus 620345.c01 (HIV-1)
[2] = molecular target: HIV-1 Env of pseudovirus Ce704809221_1B3 (HIV-1)
[3] = molecular target: HIV-1 Env of pseudovirus WITO4160.33 (HIV-1)
[4] = molecular target: HIV-1 Env of pseudovirus Ce703010054_2A2 (HIV-1)
[5] = molecular target: HIV-1 Env of pseudovirus Ce0393_C3 (HIV-1)
[6] = molecular target: HIV-1 Env of pseudovirus 1394C9G1(Rev-) (HIV-1)
[7] = molecular target: HIV-1 Env of pseudovirus 1006_11_C3_1601 (HIV-1)
[8] = molecular target: HIV-1 Env of pseudovirus CNE5 (HIV-1)
[9] = molecular target: HIV-1 Env of pseudovirus SC422661.8 (HIV-1)
[10] = molecular target: HIV-1 Env of pseudovirus 6545.v4.c1 (HIV-1)
[11] = molecular target: HIV-1 Env of pseudovirus 1056_10_TA11_1826 (HIV-1)
[12] = molecular target: HIV-1 Env of pseudovirus Du156.12 (HIV-1)
[13] = molecular target: HIV-1 Env of pseudovirus X2088_c9 (HIV-1)
[14] = molecular target: HIV-1 Env of pseudovirus Ce1172_H1 (HIV-1)
[15] = molecular target: HIV-1 Env of pseudovirus X2131_C1_B5 (HIV-1)
[16] = molecular target: HIV-1 Env of pseudovirus SC05_8C11_2344 (HIV-1)
[17] = molecular target: HIV-1 Env of pseudovirus ZM214M.PL15 (HIV-1)
[18] = molecular target: HIV-1 Env of pseudovirus T251-18 (HIV-1)
[19] = molecular target: HIV-1 Env of pseudovirus BJOX010000.06.2 (HIV-1)
[20] = molecular target: HIV-1 Env of pseudovirus R3265.c06 (HIV-1)
[21] = molecular target: HIV-1 Env of pseudovirus A07412M1.vrc12 (HIV-1)
[22] = molecular target: HIV-1 Env of pseudovirus QH0692.42 (HIV-1)
[23] = molecular target: HIV-1 Env of pseudovirus Q769.d22 (HIV-1)
[24] = molecular target: HIV-1 Env of pseudovirus X1193_c1 (HIV-1)
[25] = molecular target: HIV-1 Env of pseudovirus R2184.c04 (HIV-1)
[26] = molecular target: HIV-1 Env of pseudovirus THRO4156.18 (HIV-1)
[27] = molecular target: HIV-1 Env of pseudovirus ZM249M.PL1 (HIV-1)
[28] = molecular target: HIV-1 Env of pseudovirus 246F C1G (HIV-1)
[29] = molecular target: HIV-1 Env of pseudovirus 231965.c01 (HIV-1)
[30] = molecular target: HIV-1 Env of pseudovirus T278-50 (HIV-1)
[31] = molecular target: HIV-1 Env of pseudovirus 191084 B7-19 (HIV-1)
[32] = molecular target: HIV-1 Env of pseudovirus 6811.v7.c18 (HIV-1)
[33] = molecular target: HIV-1 Env of pseudovirus PVO.4 (HIV-1)
[34] = molecular target: HIV-1 Env of pseudovirus ZM233M.PB6 (HIV-1)
[35] = molecular target: HIV-1 Env of pseudovirus Du422.1 (HIV-1)
[36] = molecular target: HIV-1 Env of pseudovirus 3817.v2.c59 (HIV-1)

PGT151 (antibody)
IC50, titer in TZM.bl cells [1]: > 50 mg/L
IC80, titer in TZM.bl cells [1]: > 50 mg/L
IC50 [2]: > 50 mg/L
IC80 [2]: > 50 mg/L
IC50 [3]: 0.002 mg/L
IC80 [3]: 0.021 mg/L
IC50 [4]: 0.013 mg/L
IC80 [4]: 0.075 mg/L
IC50 [5]: > 50 mg/L
IC80 [5]: > 50 mg/L
IC50 [6]: 0.022 mg/L
IC80 [6]: 0.733 mg/L
IC50 [7]: 2.89 mg/L
IC80 [7]: > 50 mg/L
IC50, titer in TZM.bl cells [8]: > 50 mg/L
IC80, titer in TZM.bl cells [8]: > 50 mg/L
IC50 [9]: 0.005 mg/L
IC80 [9]: 0.028 mg/L
IC50, titer in TZM.bl cells [10]: 0.004 mg/L
IC80, titer in TZM.bl cells [10]: 0.026 mg/L
IC50 [11]: 0.008 mg/L
IC80 [11]: 0.048 mg/L
IC50 [12]: 0.005 mg/L
IC80 [12]: 0.023 mg/L
IC50, titer in TZM.bl cells [13]: > 50 mg/L
IC80, titer in TZM.bl cells [13]: > 50 mg/L
IC50 [14]: > 50 mg/L
IC80 [14]: > 50 mg/L
IC50, titer in TZM.bl cells [15]: 0.007 mg/L
IC80, titer in TZM.bl cells [15]: 0.036 mg/L
IC50 [16]: 0.06 mg/L
IC80 [16]: > 50 mg/L
IC50 [17]: 0.008 mg/L
IC80 [17]: 0.045 mg/L
IC50, titer in TZM.bl cells [18]: 0.327 mg/L
IC80, titer in TZM.bl cells [18]: > 50 mg/L
IC50, titer in TZM.bl cells [19]: > 50 mg/L
IC80, titer in TZM.bl cells [19]: > 50 mg/L
IC50, titer in TZM.bl cells [20]: > 50 mg/L
IC80, titer in TZM.bl cells [20]: > 50 mg/L
IC50, titer in TZM.bl cells [21]: 0.246 mg/L
IC80, titer in TZM.bl cells [21]: > 50 mg/L
IC50 [22]: 0.029 mg/L
IC80 [22]: 0.522 mg/L
IC50 [23]: > 50 mg/L
IC80 [23]: > 50 mg/L
IC50, titer in TZM.bl cells [24]: 0.004 mg/L
IC80, titer in TZM.bl cells [24]: 0.027 mg/L
IC50, titer in TZM.bl cells [25]: > 50 mg/L
IC80, titer in TZM.bl cells [25]: > 50 mg/L
IC50 [26]: > 50 mg/L
IC80 [26]: > 50 mg/L
IC50 [27]: 0.004 mg/L
IC80 [27]: 0.015 mg/L
IC50 [28]: > 50 mg/L
IC80 [28]: > 50 mg/L
IC50, titer in TZM.bl cells [29]: < 0.001 mg/L
IC80, titer in TZM.bl cells [29]: 0.012 mg/L
IC50, titer in TZM.bl cells [30]: 0.13 mg/L
IC80, titer in TZM.bl cells [30]: > 50 mg/L
IC50 [31]: 0.004 mg/L
IC80 [31]: 0.016 mg/L
IC50, titer in TZM.bl cells [32]: > 50 mg/L
IC80, titer in TZM.bl cells [32]: > 50 mg/L
IC50 [33]: 0.017 mg/L
IC80 [33]: > 50 mg/L
IC50 [34]: 0.027 mg/L
IC80 [34]: 5.16 mg/L
IC50 [35]: 4.6 mg/L
IC80 [35]: > 50 mg/L
IC50, titer in TZM.bl cells [36]: > 50 mg/L
IC80, titer in TZM.bl cells [36]: > 50 mg/L

PGT128 (antibody)
IC50, titer in TZM.bl cells [1]: > 50 mg/L
IC80, titer in TZM.bl cells [1]: > 50 mg/L
IC50 [2]: 0.026 mg/L
IC80 [2]: 0.072 mg/L
IC50 [3]: > 50 mg/L
IC80 [3]: > 50 mg/L
IC50 [4]: > 50 mg/L
IC80 [4]: > 50 mg/L
IC50 [5]: > 50 mg/L
IC80 [5]: > 50 mg/L
IC50 [6]: 0.011 mg/L
IC80 [6]: 0.034 mg/L
IC50 [7]: 0.011 mg/L
IC80 [7]: 0.04 mg/L
IC50, titer in TZM.bl cells [8]: 0.018 mg/L
IC80, titer in TZM.bl cells [8]: 0.253 mg/L
IC50 [9]: 1.08 mg/L
IC80 [9]: 18.4 mg/L
IC50, titer in TZM.bl cells [10]: > 50 mg/L
IC80, titer in TZM.bl cells [10]: > 50 mg/L
IC50 [11]: < 0.001 mg/L
IC80 [11]: 0.008 mg/L
IC50 [12]: 0.017 mg/L
IC80 [12]: 0.046 mg/L
IC50, titer in TZM.bl cells [13]: > 50 mg/L
IC80, titer in TZM.bl cells [13]: > 50 mg/L
IC50 [14]: 0.013 mg/L
IC80 [14]: 0.038 mg/L
IC50, titer in TZM.bl cells [15]: > 50 mg/L
IC80, titer in TZM.bl cells [15]: > 50 mg/L
IC50 [16]: 0.017 mg/L
IC80 [16]: 0.041 mg/L
IC50 [17]: 1.5 mg/L
IC80 [17]: 29.4 mg/L
IC50, titer in TZM.bl cells [18]: > 50 mg/L
IC80, titer in TZM.bl cells [18]: > 50 mg/L
IC50, titer in TZM.bl cells [19]: 4.82 mg/L
IC80, titer in TZM.bl cells [19]: > 50 mg/L
IC50, titer in TZM.bl cells [20]: > 50 mg/L
IC80, titer in TZM.bl cells [20]: > 50 mg/L
IC50, titer in TZM.bl cells [21]: > 50 mg/L
IC80, titer in TZM.bl cells [21]: > 50 mg/L
IC50 [22]: 0.029 mg/L
IC80 [22]: 0.081 mg/L
IC50 [23]: > 50 mg/L
IC80 [23]: > 50 mg/L
IC50, titer in TZM.bl cells [24]: > 50 mg/L
IC80, titer in TZM.bl cells [24]: > 50 mg/L
IC50, titer in TZM.bl cells [25]: 20.1 mg/L
IC80, titer in TZM.bl cells [25]: > 50 mg/L
IC50 [26]: > 50 mg/L
IC80 [26]: > 50 mg/L
IC50 [27]: 39.7 mg/L
IC80 [27]: > 50 mg/L
IC50 [28]: 0.005 mg/L
IC80 [28]: 0.014 mg/L
IC50, titer in TZM.bl cells [29]: > 50 mg/L
IC80, titer in TZM.bl cells [29]: > 50 mg/L
IC50, titer in TZM.bl cells [30]: 0.031 mg/L
IC80, titer in TZM.bl cells [30]: 0.089 mg/L
IC50 [31]: 0.022 mg/L
IC80 [31]: 0.152 mg/L
IC50, titer in TZM.bl cells [32]: 0.003 mg/L
IC80, titer in TZM.bl cells [32]: 0.05 mg/L
IC50 [33]: 0.011 mg/L
IC80 [33]: 0.028 mg/L
IC50 [34]: > 50 mg/L
IC80 [34]: > 50 mg/L
IC50 [35]: 0.039 mg/L
IC80 [35]: 0.113 mg/L
IC50, titer in TZM.bl cells [36]: 0.003 mg/L
IC80, titer in TZM.bl cells [36]: 0.023 mg/L

PGT121 (antibody)
IC50 [1]: > 50 mg/L
IC80 [1]: > 50 mg/L
IC50 [2]: 0.025 mg/L
IC80 [2]: 0.126 mg/L
IC50 [3]: 0.334 mg/L
IC80 [3]: 2.35 mg/L
IC50 [4]: > 50 mg/L
IC80 [4]: > 50 mg/L
IC50 [5]: > 50 mg/L
IC80 [5]: > 50 mg/L
IC50 [6]: 0.264 mg/L
IC80 [6]: 1.95 mg/L
IC50 [7]: 0.002 mg/L
IC80 [7]: 0.007 mg/L
IC50 [8]: > 50 mg/L
IC80 [8]: > 50 mg/L
IC50 [9]: 0.038 mg/L
IC80 [9]: 0.177 mg/L
IC50 [10]: > 50 mg/L
IC80 [10]: > 50 mg/L
IC50 [11]: 0.004 mg/L
IC80 [11]: 0.081 mg/L
IC50 [12]: 0.004 mg/L
IC80 [12]: 0.017 mg/L
IC50 [13]: 0.003 mg/L
IC80 [13]: 0.013 mg/L
IC80 [14]: 0.036 mg/L
IC50 [15]: 0.004 mg/L
IC80 [15]: 0.023 mg/L
IC50 [16]: 0.019 mg/L
IC80 [16]: 0.071 mg/L
IC50 [17]: 0.46 mg/L
IC80 [17]: 2.04 mg/L
IC50 [18]: 29 mg/L
IC80 [18]: > 50 mg/L
IC50 [19]: > 50 mg/L
IC80 [19]: > 50 mg/L
IC50 [20]: > 50 mg/L
IC80 [20]: > 50 mg/L
IC50 [21]: 0.009 mg/L
IC80 [21]: 0.075 mg/L
IC50 [22]: 0.302 mg/L
IC80 [22]: 2.31 mg/L
IC50 [23]: > 50 mg/L
IC80 [23]: > 50 mg/L
IC80 [24]: 0.086 mg/L
IC50 [25]: > 50 mg/L
IC80 [25]: > 50 mg/L
IC50 [26]: > 50 mg/L
IC80 [26]: > 50 mg/L
IC50 [27]: > 50 mg/L
IC80 [27]: > 50 mg/L
IC50 [28]: 0.041 mg/L
IC80 [28]: 0.14 mg/L
IC50 [29]: > 50 mg/L
IC80 [29]: > 50 mg/L
IC50 [30]: > 50 mg/L
IC80 [30]: > 50 mg/L
IC50 [32]: < 0.001 mg/L
IC80 [32]: 0.001 mg/L
IC50 [33]: 0.098 mg/L
IC80 [33]: 0.343 mg/L
IC50 [34]: 3.69 mg/L
IC50 [35]: 0.039 mg/L
IC80 [35]: 0.143 mg/L
IC50 [36]: 18.9 mg/L
IC80 [36]: > 50 mg/L
